Test results from patent US11504441B2, “Radiolabeled compounds targeting the prostate-specific membrane antigen” (PROVINCIAL HEALTH SERVICES AUTHORITY, priority 2019, dated 2022).

Experiment: in vivo
Parameters: species or system mice
Settings: male, NODSCID 1L2RγKO, mouse, iv, total radioactivity

Structure (SMILES): COc1ccc(CCCC(=O)NCC(=O)N[C@@H](CCCCNC(=O)CN2CCN(CC(=O)O)CCN(CC(=O)O)CCN(CC(=O)O)CC2)C(=O)NC[C@H]2CC[C@H](C(=O)N[C@@H](Cc3c4ccccc4cc4ccccc34)C(=O)NCCCC[C@H](NC(=O)N[C@@H](COCC(=O)O)C(=O)O)C(=O)O)CC2)cc1 [177Lu-HTK04028, metal not drawn]
- tissue uptake at 1 h (Adrenal glands uptake): 3.25 ± 0.34 %ID/g
- tissue uptake at 4 h (Adrenal glands uptake): 2.18 ± 0.33 %ID/g
- tissue uptake at 24 h (Adrenal glands uptake): 0.73 ± 0.13 %ID/g
- tissue uptake at 72 h (Adrenal glands uptake): 0.48 ± 0.17 %ID/g
- tissue uptake at 120 h (Adrenal glands uptake): 0.33 ± 0.05 %ID/g
- tissue uptake at 1 h (Blood uptake): 17.7 ± 2.1 %ID/g
- tissue uptake at 4 h (Blood uptake): 12.2 ± 1.66 %ID/g
- tissue uptake at 24 h (Blood uptake): 0.82 ± 0.11 %ID/g
- tissue uptake at 72 h (Blood uptake): 0.05 ± 0.01 %ID/g
- tissue uptake at 120 h (Blood uptake): 0.02 %ID/g
- tissue uptake at 1 h (Bone uptake): 0.99 ± 0.21 %ID/g
- tissue uptake at 4 h (Bone uptake): 0.63 ± 0.1 %ID/g
- tissue uptake at 24 h (Bone uptake): 0.11 ± 0.02 %ID/g
- tissue uptake at 72 h (Bone uptake): 0.05 ± 0.02 %ID/g
- tissue uptake at 120 h (Bone uptake): 0.04 ± 0.02 %ID/g
- tissue uptake at 1 h (Brain uptake): 0.26 ± 0.03 %ID/g
- tissue uptake at 4 h (Brain uptake): 0.19 ± 0.02 %ID/g
- tissue uptake at 24 h (Brain uptake): 0.02 %ID/g
- tissue uptake at 72 h (Brain uptake): 0.01 %ID/g
- tissue uptake at 1 h (Fat uptake): 1.26 ± 0.21 %ID/g
- tissue uptake at 4 h (Fat uptake): 0.89 ± 0.24 %ID/g
- tissue uptake at 24 h (Fat uptake): 0.14 ± 0.02 %ID/g
- tissue uptake at 72 h (Fat uptake): 0.06 ± 0.02 %ID/g
- tissue uptake at 120 h (Fat uptake): 0.03 ± 0.01 %ID/g
- tissue uptake at 1 h (Heart uptake): 4.15 ± 0.31 %ID/g
- tissue uptake at 4 h (Heart uptake): 2.67 ± 0.31 %ID/g
- tissue uptake at 24 h (Heart uptake): 0.36 ± 0.03 %ID/g
- tissue uptake at 72 h (Heart uptake): 0.12 ± 0.03 %ID/g
- tissue uptake at 120 h (Heart uptake): 0.07 ± 0.01 %ID/g
- tissue uptake at 1 h (Intestine uptake): 1.23 ± 0.24 %ID/g
- tissue uptake at 4 h (Intestine uptake): 1.04 ± 0.12 %ID/g
- tissue uptake at 24 h (Intestine uptake): 0.23 ± 0.05 %ID/g
- tissue uptake at 72 h (Intestine uptake): 0.07 ± 0.03 %ID/g
- tissue uptake at 120 h (Intestine uptake): 0.08 ± 0.05 %ID/g
- tissue uptake at 1 h (Kidneys uptake): 8.3 ± 1.58 %ID/g
- tissue uptake at 4 h (Kidneys uptake): 9.21 ± 2.76 %ID/g
- tissue uptake at 24 h (Kidneys uptake): 4.32 ± 0.58 %ID/g
- tissue uptake at 72 h (Kidneys uptake): 1.77 ± 0.25 %ID/g
- tissue uptake at 120 h (Kidneys uptake): 1.16 ± 0.13 %ID/g
- tissue uptake at 1 h (Lacrimal uptake): 0.51 ± 0.23 %ID/g
- tissue uptake at 4 h (Lacrimal uptake): 0.39 ± 0.19 %ID/g
- tissue uptake at 24 h (Lacrimal uptake): 0.05 ± 0.04 %ID/g
- tissue uptake at 72 h (Lacrimal uptake): 0.01 ± 0.01 %ID/g
- tissue uptake at 1 h (Liver uptake): 2.93 ± 0.51 %ID/g
- tissue uptake at 4 h (Liver uptake): 2.29 ± 0.55 %ID/g
- tissue uptake at 24 h (Liver uptake): 0.54 ± 0.09 %ID/g
- tissue uptake at 72 h (Liver uptake): 0.22 ± 0.02 %ID/g
- tissue uptake at 120 h (Liver uptake): 0.31 ± 0.3 %ID/g
- tissue uptake at 1 h (Lungs uptake): 7.88 ± 1.77 %ID/g
- tissue uptake at 4 h (Lungs uptake): 5.79 ± 0.44 %ID/g
- tissue uptake at 24 h (Lungs uptake): 1.08 ± 0.72 %ID/g
- tissue uptake at 72 h (Lungs uptake): 0.18 ± 0.02 %ID/g
- tissue uptake at 120 h (Lungs uptake): 0.09 ± 0.01 %ID/g
- tissue uptake at 1 h (Muscle uptake): 1.32 ± 0.19 %ID/g
- tissue uptake at 4 h (Muscle uptake): 0.83 ± 0.09 %ID/g
- tissue uptake at 24 h (Muscle uptake): 0.11 ± 0.02 %ID/g
- tissue uptake at 72 h (Muscle uptake): 0.03 ± 0.01 %ID/g
- tissue uptake at 120 h (Muscle uptake): 0.02 %ID/g
- tissue uptake at 1 h (Pancreas uptake): 1.53 ± 0.22 %ID/g
- tissue uptake at 4 h (Pancreas uptake): 1.24 ± 0.04 %ID/g
- tissue uptake at 24 h (Pancreas uptake): 0.15 ± 0.02 %ID/g
- tissue uptake at 72 h (Pancreas uptake): 0.05 ± 0.01 %ID/g
- tissue uptake at 120 h (Pancreas uptake): 0.03 %ID/g
- tissue uptake at 1 h (Salivary uptake): 2.55 ± 0.21 %ID/g
- tissue uptake at 4 h (Salivary uptake): 1.75 ± 0.25 %ID/g
- tissue uptake at 24 h (Salivary uptake): 0.45 ± 0.1 %ID/g
- tissue uptake at 72 h (Salivary uptake): 0.19 ± 0.05 %ID/g
- tissue uptake at 120 h (Salivary uptake): 0.11 ± 0.03 %ID/g
- tissue uptake at 1 h (Seminal uptake): 1.53 ± 0.97 %ID/g
- tissue uptake at 4 h (Seminal uptake): 0.9 ± 0.2 %ID/g
- tissue uptake at 24 h (Seminal uptake): 0.12 ± 0.02 %ID/g
- tissue uptake at 72 h (Seminal uptake): 0.05 ± 0.01 %ID/g
- tissue uptake at 120 h (Seminal uptake): 0.05 ± 0.03 %ID/g
- tissue uptake at 1 h (Spleen uptake): 1.53 ± 0.23 %ID/g
- tissue uptake at 4 h (Spleen uptake): 1.44 ± 0.31 %ID/g
- tissue uptake at 24 h (Spleen uptake): 0.48 ± 0.14 %ID/g
- tissue uptake at 72 h (Spleen uptake): 0.49 ± 0.16 %ID/g
- tissue uptake at 120 h (Spleen uptake): 0.69 ± 0.36 %ID/g
- tissue uptake at 1 h (Stomach uptake): 0.51 ± 0.18 %ID/g
- tissue uptake at 4 h (Stomach uptake): 0.45 ± 0.06 %ID/g
- tissue uptake at 24 h (Stomach uptake): 0.31 ± 0.1 %ID/g
- tissue uptake at 72 h (Stomach uptake): 0.07 ± 0.07 %ID/g
- tissue uptake at 120 h (Stomach uptake): 0.1 ± 0.1 %ID/g
- tissue uptake at 1 h (Tail uptake): 4.85 ± 1.59 %ID/g
- tissue uptake at 4 h (Tail uptake): 2.21 ± 0.18 %ID/g
- tissue uptake at 24 h (Tail uptake): 0.31 ± 0.1 %ID/g
- tissue uptake at 72 h (Tail uptake): 0.15 ± 0.04 %ID/g
- tissue uptake at 120 h (Tail uptake): 0.1 ± 0.03 %ID/g
- tissue uptake at 1 h (Testes uptake): 2.26 ± 0.46 %ID/g
- tissue uptake at 4 h (Testes uptake): 2.66 ± 0.41 %ID/g
- tissue uptake at 24 h (Testes uptake): 0.55 ± 0.05 %ID/g
- tissue uptake at 72 h (Testes uptake): 0.31 ± 0.05 %ID/g
- tissue uptake at 120 h (Testes uptake): 0.22 ± 0.01 %ID/g
- tissue uptake at 1 h (Thyroid uptake): 3.3 ± 0.42 %ID/g
- tissue uptake at 4 h (Thyroid uptake): 2.3 ± 0.3 %ID/g
- tissue uptake at 24 h (Thyroid uptake): 0.52 ± 0.08 %ID/g
- tissue uptake at 72 h (Thyroid uptake): 0.24 ± 0.04 %ID/g
- tissue uptake at 120 h (Thyroid uptake): 0.13 ± 0.02 %ID/g
- tissue uptake at 1 h (Tumor uptake): 19 ± 5.86 %ID/g
- tissue uptake at 4 h (Tumor uptake): 42.6 ± 11.6 %ID/g
- tissue uptake at 24 h (Tumor uptake): 30.2 ± 2.74 %ID/g
- tissue uptake at 72 h (Tumor uptake): 26.1 ± 7.29 %ID/g
- tissue uptake at 120 h (Tumor uptake): 28.4 ± 5.11 %ID/g
